{"source": "patent US20160244740A1", "about": "“MUTANT CHON[…] I COMPOSITIONS AND METHODS OF THEIR USE” (OHIO STATE INNOVATION FOUNDATION, priority 2013, published 2016)", "molecules": {"B1": {"name": "Chase ABC: bacterial enzyme, chondroitin-sulfate-ABC endolyase; bacterially produced and purified (Seikagaku Inc) (protein, UniProt P59807 25-1021, looked up)", "Chondroitin sulfate ABC …": "ATSNPAFDPKNLMQSEIYHFAQNNPLADFSSDKNSILTLSDKRSIMGNQSLLWKWKGGSSFTLHKKLIVPTDKEASKAWGRSSTPVFSFWLYNEKPIDGYLTIDFGEKLISTSEAQAGFKVKLDFTGWRAVGVSLNNDLENREMTLNATNTSSDGTQDSIGRSLGAKVDSIRFKAPSNVSQGEIYIDRIMFSVDDARYQWSDYQVKTRLSEPEIQFHNVKPQLPVTPENLAAIDLIRQRLINEFVGGEKETNLALEENISKLKSDFDALNIHTLANGGTQGRHLITDKQIIIYQPENLNSQDKQLFDNYVILGNYTTLMFNISRAYVLEKDPTQKAQLKQMYLLMTKHLLDQGFVKGSALVTTHHWGYSSRWWYISTLLMSDALKEANLQTQVYDSLLWYSREFKSSFDMKVSADSSDLDYFNTLSRQHLALLLLEPDDQKRINLVNTFSHYITGALTQVPPGGKDGLRPDGTAWRHEGNYPGYSFPAFKNASQLIYLLRDTPFSVGESGWNNLKKAMVSAWIYSNPEVGLPLAGRHPFNSPSLKSVAQGYYWLAMSAKSSPDKTLASIYLAISDKTQNESTAIFGETITPASLPQGFYAFNGGAFGIHRWQDKMVTLKAYNTNVWSSEIYNKDNRYGRYQSHGVAQIVSNGSQLSQGYQQEGWDWNRMQGATTIHLPLKDLDSPKPHTLMQRGERGFSGTSSLEGQYGMMAFDLIYPANLERFDPNFTAKKSVLAADNHLIFIGSNINSSDKNKNVETTLFQHAITPTLNTLWINGQKIENMPYQTTLQQGDWLIDSNGNGYLITQAEKVNVSRQHQVSAENKNRQPTEGNFSSAWIDHSTRPKDASYEYMVFLDATPEKMGEMAQKFRENNGLYQVLRKDKDVHIILDKLSNVTGYAFYQPASIEDKWIKKVNKPAIVMTHRQKDTLIVSAVTPDLNMTRQKAATPVTINVTINGKWQSADKNSEVKYQVSGDNTELTFTSYFGIPQEIKLSPLP"}}, "key": {"[1]": {"conditions": "in vivo; cited from earlier work"}, "subcutaneous tumors": {"system": "subcutaneous tumors", "conditions": "with adenovirus; cited from earlier work"}, "[2]": {"system": "U87ΔEGFR human glioma spheroids", "assay": "oHSV spread in organotypic glioma model in presence/absence of Chase ABC", "assay_type": "cell-based", "conditions": "10^4 pfus of rQNestin34.5, presence vs absence of purified Chase ABC, n=3/group", "procedure": "Briefly U87delta EGFR glioma cell line spheroids on Organotypic brain slice cultures were treated with or without purified Chase and then infected with OV. […] Gli36ΔEGFR mice were inoculated with 1×10^6 viral particles on six days (shown by arrows), and percent survival (FIG. 15A) and tumor volume were followed over the course of the study. U87ΔEGFR mice were also inoculated with 1×10^6 viral particles on six days (shown by arrows), and percent survival (FIG. 15B) and tumor volume were followed over the course of the study. U87ΔEGFR mice were also inoculated with 3×10^5 viral particles once ten days after cell implantation (shown by arrow), and percent survival (FIG. 15C) was followed over the course of the study.\nAs a preliminary result, the effect of Chase ABC treatment on spread by the rQNestin34.5 oHSV was tested in an organotypic glioma model. Briefly, U87ΔEGFR human glioma spheroids (made by the hanging drop method), grown on 300-μm organotypic brain slices from 5-7-day-old mice, were infected with 10^4 pfus of rQNestin34.5, in the presence/absence of Chase ABC. Spread of oHSV in the spheres was visualized by fluorescent imaging of oHSV encoded GFP in infected cells (n=3/group)."}, "[3]": {"conditions": "cited from earlier work; for toxicity/hemorrhages/glial reactivity: repeated injections into brains and spinal cords"}, "glioma cells": {"system": "glioma cells", "assay": "Effect of Chase ABC treatment of glioma cells in vitro on oHSV infection/replication", "assay_type": "cell-based", "excerpt": "The tumor's extracellular matrix (ECM) can pose a significant barrier for efficient viral spread, thus limiting virotherapy efficacy. Chondroitin sulfate proteoglycans (CSPG) are one of the major components of glioma ECM. Choindroitinase ABC 1 (Chase ABC) is a bacterial enzyme that can depolymerize this ECM scaffold. Chase ABC mediated digestion of glioma CSPG can enhance oHSV dissemination and efficacy. […] This study examines the mechanism and impact of Chase ABC on oncolysis. Reduced virus replication can contribute to limited oncolytic efficacy of oHSV. Several innovative approaches are currently under investigation including transcriptional retargeting of viruses to drive virulence under the control of tumor-specific promoters. rQNestin34.5 is an oHSV that expresses viral ICP34.5 regulated by glioma-specific nestin promoter in an ICP34.5 deleted viral backbone. […] An oHSV expressing the humanized sequence of Chase ABC within the context of rQNestin34.5 can be used. […] The anti-tumor efficacy of the Chase ABC-expressing oHSV in vitro and in vivo, in glioma can be tested. The impact of the Chase ABC-expressing oHSV on tumor immune cell infiltration and responses can also be tested."}}, "note": "Like-named read-outs stand apart in the source and are kept apart here."}
{"molecule": "collagenase", "values": [{"measurement": "intratumoral hemorrhages", "setting": "[1]", "value": "intratumoral hemorrhages occurred in many tumors"}]}
{"molecule": "hyaluronidase", "values": [{"measurement": "viral spread and therapeutic efficacy", "setting": "subcutaneous tumors", "value": "increased viral spread and therapeutic efficacy"}]}
{"molecule": "B1", "values": [{"measurement": "oHSV spread in spheres (GFP imaging)", "setting": "[2]", "value": "increase in viral spread"}, {"measurement": "oHSV spread in spheres (GFP imaging)", "setting": "[2]; listed as purified Chase ABC", "value": "increased oHSV spread within all three glioma spheroids"}, {"measurement": "loss of neurons, alterations of their structure, reactions of glial cells", "setting": "[3]; intracerebral injections, immediately or after five months of treatment", "value": "did not reveal loss of neurons or alterations of their structure nor reactions of glial cells"}, {"measurement": "toxicity/hemorrhages/glial reactivity", "setting": "[3]", "value": "have not been associated with deleterious effects"}, {"measurement": "toxicity/hemorrhages/glial reactivity", "setting": "[3]; listed as purified Chase ABC", "value": "absence of toxicity/hemorrhages/glial reactivity"}, {"measurement": "oHSV infection/replication", "setting": "glioma cells", "value": "does not negatively affect oHSV infection/replication"}]}
